Experimental data published in patent EP4792886A2, “CNP PRODRUGS” (Ascendis Pharma Growth Disorders A/S, priority 2015, dated 2016).
Bridges are numbered along the chain shown (N, C = ends). Where no end group is shown, it is not given here. The star is where a group is joined. Hexanoyl(6-maleimido) = O=C1C=CC(=O)N1CCCCCC(=O)*

Legend:
[1] = target: recombinant human NEP (Homo sapiens, UniProt P08473); details: pH 7.4
Description: Samples were taken at different time intervals. […] The resulting reaction products were assigned using HPLC-MS.

[2] = tested on: wild-type FVB male mice; test: Growth study in FVB mice after 5 weeks treatment, daily subcutaneous bolus injection or continuous subcutaneous infusion; format: in vivo; details: 50 nmol/kg/d, d 35
Procedure: This study was performed in order to test the effect of daily subcutaneous bolus injection vs. continuous subcutaneous infusion of CNP-38 on animal growth. 21- to 22-days-old wild-type FVB male mice (n = 9/group) were given 50 nmol/kg/d CNP-38 or vehicle (30 mM acetate pH 4 containing 5 % sucrose and 1 % benzylic alcohol) either by daily subcutaneous bolus injection or by continuous subcutaneous infusion in the scapular region over 35 days. Continuous infusion was applied by Alzet osmotic pumps model 1002 for week 1-2, followed by model 1004 for week 3-5. CNP-38 concentrations in the pumps were adjusted for the mean animal weight at study day 7 (pump model 1002) or study day 25 (pump model 1004). Growth was determined at d 35 by total body length measurement and X-ray measurements of the right femur and tibia.

[3] = target: T1, natriuretic-peptide receptor B (NPR-B) expressed endogenously on NIH-3T3 cells (Murine Embryo Fibroblast cell … (murine, UniProt Q6VVW5 17-1047)); test: cell-based or functional assay
T1 sequence (looked up): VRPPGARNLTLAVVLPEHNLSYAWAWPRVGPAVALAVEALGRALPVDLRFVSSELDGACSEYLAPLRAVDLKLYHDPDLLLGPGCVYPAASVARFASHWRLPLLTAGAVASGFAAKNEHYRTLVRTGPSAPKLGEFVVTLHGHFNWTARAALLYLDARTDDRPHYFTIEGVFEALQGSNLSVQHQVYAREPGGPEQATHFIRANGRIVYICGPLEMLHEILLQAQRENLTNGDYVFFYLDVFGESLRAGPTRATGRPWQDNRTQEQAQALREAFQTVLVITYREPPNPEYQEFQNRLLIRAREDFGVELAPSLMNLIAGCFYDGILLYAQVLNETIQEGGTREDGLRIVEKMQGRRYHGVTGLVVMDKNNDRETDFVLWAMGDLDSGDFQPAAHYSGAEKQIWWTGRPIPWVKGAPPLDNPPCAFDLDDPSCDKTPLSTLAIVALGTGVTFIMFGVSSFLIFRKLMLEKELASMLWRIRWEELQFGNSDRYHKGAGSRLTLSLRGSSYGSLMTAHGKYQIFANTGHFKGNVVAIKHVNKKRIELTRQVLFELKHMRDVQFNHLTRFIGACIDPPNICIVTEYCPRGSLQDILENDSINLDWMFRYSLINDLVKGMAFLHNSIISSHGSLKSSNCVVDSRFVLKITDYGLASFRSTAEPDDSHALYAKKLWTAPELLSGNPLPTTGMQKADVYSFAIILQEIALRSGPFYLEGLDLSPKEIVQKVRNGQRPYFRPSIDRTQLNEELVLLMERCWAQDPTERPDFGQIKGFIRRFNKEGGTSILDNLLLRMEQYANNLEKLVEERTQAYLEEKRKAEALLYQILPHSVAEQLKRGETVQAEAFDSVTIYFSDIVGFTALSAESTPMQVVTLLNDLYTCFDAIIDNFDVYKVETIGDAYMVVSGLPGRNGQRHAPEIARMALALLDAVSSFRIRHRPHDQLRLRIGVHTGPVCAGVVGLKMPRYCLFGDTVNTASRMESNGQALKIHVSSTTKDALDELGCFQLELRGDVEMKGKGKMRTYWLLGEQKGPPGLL

Chain of recombinant human NEP (P08473 whole entry): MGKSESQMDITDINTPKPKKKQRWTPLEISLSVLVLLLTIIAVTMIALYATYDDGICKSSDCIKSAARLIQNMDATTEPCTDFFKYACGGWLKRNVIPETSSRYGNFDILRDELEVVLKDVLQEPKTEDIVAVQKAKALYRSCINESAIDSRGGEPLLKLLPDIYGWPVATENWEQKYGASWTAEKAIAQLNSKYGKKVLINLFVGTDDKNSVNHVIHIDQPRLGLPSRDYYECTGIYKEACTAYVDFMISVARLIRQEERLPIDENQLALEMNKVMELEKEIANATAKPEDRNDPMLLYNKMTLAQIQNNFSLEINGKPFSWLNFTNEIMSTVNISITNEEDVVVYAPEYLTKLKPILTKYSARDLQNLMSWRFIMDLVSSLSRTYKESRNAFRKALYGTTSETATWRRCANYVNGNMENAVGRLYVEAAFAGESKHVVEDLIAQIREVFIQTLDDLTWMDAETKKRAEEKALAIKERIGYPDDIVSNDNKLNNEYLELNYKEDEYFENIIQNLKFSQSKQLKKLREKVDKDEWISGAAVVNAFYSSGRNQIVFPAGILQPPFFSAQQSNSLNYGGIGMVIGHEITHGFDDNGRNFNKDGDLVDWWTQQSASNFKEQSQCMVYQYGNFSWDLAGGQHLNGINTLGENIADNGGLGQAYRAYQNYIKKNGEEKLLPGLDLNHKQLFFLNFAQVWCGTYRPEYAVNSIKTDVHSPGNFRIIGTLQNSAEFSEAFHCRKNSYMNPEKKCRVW

CNP-38: CNP-38 SEQ ID No:24, LQEHPNARKYKGANKKGLSKGCFGLKLDRIGSMSGLGC, obtained from CASLO ApS (disulfide 22-38)
half life norm. [1]: 12.10 h
total body lenght compared to vehicle treated animals ([2]; continuous subcutaneous infusion): 121.7%
total body lenght compared to vehicle treated animals ([2]; daily subcutaneous bolus injection): 110.2%

{PEG 5 kDa-Hexanoyl(6-maleimido)}-LQEHPNARKYKGANKKGLSKGCFGLKLDRIGSMSGLGC (disulfide 22-38) [permanent N-terminal CNP-38 PEG 5kDa conjugate 15e]
Residual Activity [%] (cGMP TR-FRET in NIH-3T3 cells, by EC50 against non-PEGylated CNP-38) [3]: 14%

B1: permanent Lys26 CNP-38 PEG 5 kDa conjugate 19e (peptide)
peptide: LQEHPNARKYKGANKKGLSKGCFGLKLDRIGSMSGLGC
modifications: 5 kDa PEG stably attached at the side chain of Lys26 through a maleimido hexanoyl group; disulfide bridge between Cys22 and Cys38
Residual Activity [%] (cGMP TR-FRET in NIH-3T3 cells, by EC50 against non-PEGylated CNP-38) [3]: < 1%

LQEHPNARKYKGANKKGLSKGCFGLKLDRIGSMSGLGC (disulfide 22-38; not fully specified (residue 26)) [permanent Lys26 CNP-38 PEG4x10 kDa conjugate 12g]
Residual Activity [%] (cGMP TR-FRET in NIH-3T3 cells, by EC50 against non-PEGylated CNP-38) [3]: < 1%
